Our source for the Kd values is paper PMC8951703, “A multifunctional enolase mediates cytoadhesion and interaction with host plasminogen and fibronectin in Mycoplasma hyorhinis” (Veterinary Research, 2022).

This assay deals with T1, Recombinant M. hyorhinis enolase, wild-type (Mycoplasma hyorhinis (strain HUB-1), UniProt P0DXB0 1-450).
T1 construct: enolase of Mycoplasma hyorhinis strain HUB-1, full-length gene MHR_0469 of GenBank CP002170.1, codon-optimized and synthesized; the C-terminal residues are K451 and K452; also called rEno; rEno WT
Put plainly: SPR; plasminogen or fibronectin immobilised on CM5 chips by amine coupling (600 RU); recombinant enolase proteins 0-4000 nM injected at 30 uL/min for 180 s, 20 °C, dissociation 1000 s; 10 mM HEPES, 150 mM NaCl, 3 mM EDTA, 0.05% surfactant P20; Biacore X100. The settings on record: both partners purified. On the technique in general: SPR reads the build-up and loss of mass on a sensor chip optically.

B1: plasminogen (natural protein)
chain: EPLDDYVNTQGASLFSVTKKQLGAGSIEECAAKCEEDEEFTCRAFQYHSKEQQCVIMAENRKSSIIIRMRDVVLFEKKVYLSECKTGNGKNYRGTMSKTKNGITCQKWSSTSPHRPRFSPATHPSEGLEENYCRNPDNDPQGPWCYTTDPEKRYDYCDILECEEECMHCSGENYDGKISKTMSGLECQAWDSQSPHAHGYIPSKFPNKNLKKNYCRNPDRELRPWCFTTDPNKRWELCDIPRCTTPPPSSGPTYQCLKGTGENYRGNVAVTVSGHTCQHWSAQTPHTHNRTPENFPCKNLDENYCRNPDGKRAPWCHTTNSQVRWEYCKIPSCDSSPVSTEQLAPTAPPELTPVVQDCYHGDGQSYRGTSSTTTTGKKCQSWSSMTPHRHQKTPENYPNAGLTMNYCRNPDADKGPWCFTTDPSVRWEYCNLKKCSGTEASVVAPPPVVLLPDVETPSEEDCMFGNGKGYRGKRATTVTGTPCQDWAAQEPHRHSIFTPETNPRAGLEKNYCRNPDGDVGGPWCYTTNPRKLYDYCDVPQCAAPSFDCGKPQVEPKKCPGRVVGGCVAHPHSWPWQVSLRTRFGMHFCGGTLISPEWVLTAAHCLEKSPRPSSYKVILGAHQEVNLEPHVQEIEVSRLFLEPTRKDIALLKLSSPAVITDKVIPACLPSPNYVVADRTECFITGWGETQGTFGAGLLKEAQLPVIENKVCNRYEFLNGRVQSTELCAGHLAGGTDSCQGDSGGPLVCFEKDKYILQGVTSWGLGCARPNKPGVYVRVSRFVTWIEGVMRNN
Turning to B1, the Kd (in general, the equilibrium constant for the complex coming apart) stood at 1.4 ± 0.07 nM.
